Among the data in PMC4222117 are stoichiometry N values, retold here.

In this assay the target is Aβ extracted from AD brain (human (endogenous in AD brain)). Nature of the assay: immunoprecipitation and SDS-PAGE Western blot. (A western blot detects proteins with antibodies after separation by electrophoresis.)

In the case of Aβ extracted from AD brain (peptide), the stoichiometry N is 2.

One may read the stoichiometry N as the number of molecules, sites or subunits per partner or assembly.
